Measurements taken from the DeepSol protein solubility set.

Test: soluble on expression in E. coli; label from the status in PepcDB or PDB records

Row | Sequence | soluble on expression in E. coli
1 | MTQTAAPARYSPAELACALGLFPPTAEQAAVIAAPPGPLVVIAGAGAGKTETMAARVVWLVANGYAEPGQVLGLTFTRKAAGQLLRRVRSRLARLAGIGLGCGDPAACAPVVSTYHAFAGSLLRDYGLLLPLEPDTRLLSETELWQLAFDVVSGYDGVLCTDKSPAAVTSIVVRLWGQLGEHLVDTRALRDTHVELERLVHALPAGRYQRDRGPSQWLLRMLATQTQRAELVPLLDALGERMHAGKVMDFAMQMASAARLAATSPQVGQDLRRRYRVVLLDEYQDTGHAQRVVLSSLFGGGVDDGLALTAVGDPIQSIYGWRGASATNLPRFTTDFPLSDGTPAPVLELLTSWRNPPQALRVANGISAEARRRSVAVRALRPRPDAPPGAVRCALLPDVQAEREWIADHLRMRYQRAEADGVKPPTAAVLVRRNADAAAIADTLRARGIPAEVVGLAGLLSIPEVAEVVAMLRLVADPTAGAAAMRVLTGPRWRLGARDLAALWRRALTLSGESPSTASPESIAMAASADADNPCLADAISDPGSAEGYSVAGYGRIGALAGELSALRGRLGHSLPDLVAEVRRVLGVDCEVRASAPVSGGWAGPEHLDAFADVVAGYAERASARSSEASVAGLLAYLDVAEVVENGLPPAELTVACDRVQVLTVHAAKGLEWQVVAVAHLSRGVFPSTVSRSSWLTDPAELPPLLRGDRASAGAHGIPVLDTSAVADRKQLSDKISEHRRLLDRRRVDEERRLLYVAVTRAEDTLLVSGHHWGPTGTKPRGPSEFLCELKDIIDRSAAAGDPCGVVEQWASAPAGDERNPLCDNAIEAVWPADPLAARRGDVERGAALVAAAMSADLPGSTTDIDHPPRPGDAPWSTDVDALLAERAHAARGAPARGLPNHLSVSSLVELVGDPVGARQRLMCRLPKRPDPHAWLGDAFHAWVQQFYGAELLFDLGDLPGAADREVGDPEELAALQRAFTASSWAARTPAAVEVPFEMPIGDTVVRGRIDAVFVDPDGGATVVDWKTGKPPHGPAAMRQAAVQLAVYRLAWAALRGCPTSSVRTAFYYVRSGITVVPDELPAPGELAMLLTDCAGRRSDT | not soluble
2 | MKELTNEELRGIQLEQLKYIDRICRENGIEYTLAGGSLIGAIRHGGYIPWDDDIDIELTRPHYDHLISVLMDQLPNEKYALLHYKVRETYLPFAKLYDTRTSFTSKIDNLNRGTGVFLDIFPMDILPDNEEERQVFKKEFLKKAIQLTASNPHGLDFASSSKKIYFWGKLVLWMPQHIRFYGKYRILAEKLDEFMQKYRNSDNQLISYLYTGYKKAIFPKEIWEEYEDVKFEGLTARKLKNHEEYLTRQYGDYMKLPPENERVNHDYYKWYWKEKNEILEHHHHHH | soluble
3 | ATLHSFVLVDNGGTGNVTVVPVSNANGVAEWLSNNSRSQAYRVTASYRASGADKRKYTIKLEVPKIVTQVVNGVELPVSAWKAYASIDLTIPIFAATDDVTVISKSLTGLFKVGNPIAEAISSQSGFYA | soluble
4 | MALRFITAEEAAEFVHHNDNVGFSGFTPAGNPKVVPAAIAKRAIAAHEKGNPFKIGMFTGASTGARLDGVLAQADAVKFRTPYQSNKDLRNLINNGSTSYFDLHLSTLAQDLRYGFYGKVDVAIIEVADVTEDGKILPTTGVGILPTICRLADRIIVELNDKHPKEIMGMHDLCEPLDPPARRELPVYTPSDRIGKPYVQVDPAKIVGVVRTSEPNDESDFAPLDPVTQAIGDNVAAFLVSEMKAGRIPKDFLPLQSGVGNVANAVLGALGDNPDIPAFNMYTEVIQDAVIALMKKGRIKFASGCSLSVSRSVIQDIYANLDFFKDKILLRPQEYSNNPEIVRRLGVITINTALEADIFGNINSTHVSGTRMMNGIGGSGDFTRNSYVSIFTTPSVMKDGKISSFVPMVAHHDHSEHSVKVIISEWGVADLRGKNPRERAHEIIDKCVHPDYRPLLRQYLELGVKGQTPQNLDCCFAFHQELAKSGDMRNVRWEDYMK | not soluble
5 | MGSDKIHHHHHHMNAMTQVSPLLEMRGICKTFPGVKALDDVSFDIYPGEVHMLLGENGAGKSSLMKVLCGVYVADAGEFHHQGQRVEVSGPADTMRLGIAVIFQEFSLVPYLDIAQNIFLGREPRGRVPGSVDHAKMHAEARRLLDTLGMDISTHTPVHRLGVAQQQMIEIAKALSQNARILVLDEPTAALSERETEKLFGVIARLKADGVSMIYISHRMAEVFALGDRITVMRDGRKVGSYMPGDATPDELVARMVGRKVDMGYTRTRGGPVGEVALDMQGVSADNGIDDITLQVRAGEIVGLAGLVGSGRSEVARAVFGADPVRAGEIRIFGKSMRGGPDKARALGAALIPESRKTEGLALIRSVRDNLLLAGLRRAFPAHWYRSGKAAQLSTREIGRLRIATPSGDQLAQFLSGGNQQKIVIGKWLVAESRLFIFDEPTRGIDVGAKAEIFALIDGLVKQGAAVLLISSELPEIINVCDRTYVMRGGRVAGELAHDAMTEESILQLGMNDA | not soluble
6 | PDVKCVCCTEGKECACFGQDCCVTGECCKDGTCCGI | soluble
7 | MVYVAITIVRVPGPAFSYHCPDFVRLYIEAMGYSPTIAPARIRVWRNAITEQGFVAVCAIDDSSDNPAAIGEGIVGIGYGFTGRSEHWWDQQIHRGLAEQKCPPVARPYFELAELHVSPRAQGQGIGRSLLHALIKHCGHELILLSTPEVPDEKNAAFHLYRSCGFDDLLRNFMFEGDRRPFAVLQRKAHRN | not soluble
8 | MFKPELLSPAGTLKNMRYAFAYGADAVYAGQPRYSLRVRNNEFNHENLQLGINEAHALGKKFYVVVNIAPHNAKLKTFIRDLKPVVEMGPDALIMSDPGLIMLVREHFPEMPIHLSVQANAVNWATVKFWQQMGLTRVILSRELSLEEIEEIRNQVPDMEIEIFVHGALCMAYSGRCLLSGYINKRDPNQGTCTNACRWEYNVQEGKEDDVGNIVHKYEPIPVQNVEPTLGIGAPTDKVFMIEEAQRPGEYMTAFEDEHGTYIMNSKDLRAIAHVERLTKMGVHSLKIEGRTKSFYYCARTAQVYRKAIDDAAAGKPFDTSLLETLEGLAHRGYTEGFLRRHTHDDYQNYEYGYSVSDRQQFVGEFTGERKGDLAAVAVKNKFSVGDSLELMTPQGNINFTLEHMENAKGEAMPVAPGDGYTVWLPVPQDLELNYALLMRNFSGETTRNPHGK | not soluble
9 | MSLASLSLAPVNIFKAGADEERAETARLTSFIGAIAIGDLVKSTLGPKGMDKILLSSGRDASLMVTNDGATILKNIGVDNPAAKVLVDMSRVQDDEVGDGTTSVTVLAAELLREAESLIAKKIHPQTIIAGWREATKAAREALLSSAVDHGSDEVKFRQDLMNIAGTTLSSKLLTHHKDHFTKLAVEAVLRLKGSGNLEAIHIIKKLGGSLADSYLDEGFLLDKKIGVNQPKRIENAKILIANTGMDTDKIKIFGSRVRVDSTAKVAEIEHAEKEKMKEKVERILKHGINCFINRQLIYNYPEQLFGAAGVMAIEHADFAGVERLALVTGGEIASTFDHPELVKLGSCKLIEEVMIGEDKLIHFSGVALGEACTIVLRGATQQILDEAERSLHDALCVLAQTVKDSRTVYGGGCSEMLMAHAVTQLANRTPGKEAVAMESYAKALRMLPTIIADNAGYDSADLVAQLRAAHSEGNTTAGLDMREGTIGDMAILGITESFQVKRQVLLSAAEAAEVILRVDNIIKAAPRKRVPDHHEGHHHHHH | not soluble
10 | MSLKTGRFDQAQADAFAERLLSVLNDAALTLMISIGHRTGLFDVMDKLDFASSEVIAEAAGCNERYVREWLNALVVGGIVDYDAHTKAYQLPAEHASFLTRKSSPQNMAVVAQFIPVLAYVENGIVDAFKHGGGVPYEAYHRFHEVMAEESGQTILSSLTDKILPMVHGLVDKLNQGIQVLDIGCGYGRALILMAKTYPQSQFTGYDLCDETIAHAVHSAKKNKIQNIHFEKMDLSVWDEQEKYDLITSFDVIHDQAKPAQVLSNVFKALKPHGIFLMQDIKTSSDVAGNVHHPLGALIYTISCMHCMTVSLSQNGLGLGAAWGEELAEKMLVEAGFGKIEKHYLEHDIMNTYYVMRKEGHHHHHH | soluble
11 | MVLFMLSESKKKATNWEQITKKHGSVQCVKGCCCYSLIISFMKPKEKKDFVLFCLSSVVTCCRPIQIPSRQEKKGKFLCFFLLVLIR | soluble
12 | MTVEQNVLQQSAAQKHQQTFLNQLREITGINDAQILQQALKDSNGNLELAVAFLTAKNAKTPPQEET | soluble
13 | MDSKQQCVKLNDGHFMPVLGFGTYAPPEVPRSKALEVTKLAIEAGFRHIDSAHLYNNEEQVGLAIRSKIADGSVKREDIFYTSKLWSTFHRPELVRPALENSLKKAQLDYVDLYLIHSPMSLKPGEELSPTDENGKVIFDIVDLCTTWEAMEKCKDAGLAKSIGVSNFNRRQLEMILNKPGLKYKPVCNQVECHPYFNRSKLLDFCKSKDIVLVAYSALGSQRDKRWVDPNSPVLLEDPVLCALAKKHKRTPALIALRYQLQRGVVVLAKSYNEQRIRQNVQVFEFQLTAEDMKAIDGLDRNLHYFNSDSFASHPNYPYSDEYLEHHHHHH | soluble
14 | MAHHHHHHMKNCMMADQRGRSILQYQPIVGDEALEFSRGLAPSTFGFRYAAYMDRNHFLPSGRTAVKHIADPTLAYVMTRYRQCHDFVHIITGCGRSIEEELAVKIFEWKHTGLPLGLLSLLGGAPRLSAAQWAHIRLYWEWASRNAPSSRHGEPAVPMYLNVPWEDMLAKEYDEVVAYTGITPLPDFLEKRQKH | not soluble
15 | MGHHHHHHSHMDVVKEIMAAIKQYETIIIHRHQRPDPDAIGSQVGLAELLRASFPEKNIYQVGGPVEGLEFLAEMDVITDDVYRGALVIVTDTANAPRISDARFSLGDQLIKIDHHPNDEPYGDLVWVNTNASSCSEIIVDFWQQHLAELTMTDNAARLLYAGIVGDTGRFLYPSTSAHTLAVAAQLRTFNFNAADLNRELDQMPLKVAKLAGYIYQNLEIDANGAARVVLPQSILNSYDIVDSETAAIVSMPGKIEDVLSWAIFVEQPEGYYRVRLRSKGPIINTIAKKHHGGGHPLASGANARDAAEIEVIYQEIQAACQEWAQK | soluble
16 | MPNDVDNTKITLSLGKCGYLPQDVRTMTKFDKNTKQIRTFAFVEFSNRETAEQWMTDYEGWLTLDDGRTLAVEYAKGDPAAGSGNKGDDWICAHCSMNNFVKRQTCFKCEISKDQSMELEKLGAHMVGMTPCDTLLIRGLPDGINNSLIFDSLGALVCLSSISMIKLSESKRFAYLQMKSADEAKMLLNLTYKSPIRIKDKDVQVSWCRDSMSKLIQQQMTMLTAGPGKNSVATGSLAQGNMTGAEIAAAALSKANAVRQASQQVGQIMTGLPAPAANMIPPNFSVPPPNLSVPPPMQATQPEHQNGVIGMTQTPKGLLPRYLPPNPLTFAHDPNLGYYVDPITKFCYDSATGYYFNNATSQWCNWDLTHHTYFPVETPAVINSADPEEEKMKKNEEGPKTAQDLVKDMAKWAKRQEKDKKKVQISIKGKETKGIELKNVFSNEKQKRIAQTAALFDDDEEEDQEEEVRGRRSEEPSTSSSFSSVPLAPRKSTLQDVRDAMERALYDETKKTCMLCKRAFSDVEVLRKHVEKSDLHRNNLEAKRAEWGRETAAKLQEEEEDASAPDLPKIVYRDRAKERRRQFGIDSTGYAFDVMGGPPGPTSVRHEETIRKVSEEASKRPLDESNIGNRLLKSMGWKEGQGVGKHAQGIVNPIEAERFVQGAGLGAAGSKMRHGAEASHKEKTRQALYSRYHDA | not soluble
17 | QVQLVESGGGTVPAGGSLRLSCAASGNTLCTYDMSWYRRAPGKGRDFVSGIDNDGTTTYVDSVAGRFTISQGNAKNTAYLQMDSLKPDDTAMYYCKPSLRYGLPGCPIIPWGQGTQVTVSS | soluble
18 | SGSDVRDLNALLPAVPSLGGGGGCALPVSGAAQWAPVLDFAPPGASAYGSLGGPAPPPAPPPPPPPPPHSFIKQEPSWGGAEPHEEQCLSAFTVHFSGQFTGTAGACRYGPFGPPPPSQASSGQARMFPNAPYLPSCLESQPAIRNQGYSTVTFDGTPSYGHTPSHHAAQFPNHSFKHEDPMGQQGSLGEQQYSVPPPVYGCHTPTDSCTGSQALLLRTPYSSDNLYQMTSQLECMTWNQMNLGATLKG | soluble
